# B1: ΔN71–AtTHIC (N-terminally truncated Arabidopsis thaliana THIC, HMP-P synthase, lacking the first 71 amino acids) (enzyme)
# chain: not shown
# Target: the molecule itself
# Test: SEC
protein,measurement,value
B1,stoichiometry N,2

# — article PMC6078384 (Journal of structural biology, 2013)
